From patent US20080124340A1 (published 2008)

B1: clone 2 IgG2 protein (antibody, V domains shown)
VH: EVQLVQSGGGLVQPGGSLRLSCAASGFTFSSYWMSWVRQAPGKGLEWVANIKPDGSEKYYVDSVKGRFTISRDNAKNSVYLQMNSLRAEDTAVYYCARVSRGGSYSDWGQGTLVTVSS
VL: QSVLTQPPSASGSPGQSVTISCTGTSSDVGGYNYVSWYQQHPGKAPKLMIYEVSKRPSGVPDRFSGSKSGNTASLTVSGLQPEDEADYYCSSYAGRNWVFGGGTQLTVL
notes: Human IgG2 (vector pVE414NhuIgG2); light chain constant type matches the variable light chain isotype; also called IgG2 2; IgG22
B2: clone 5 IgG2 protein (antibody, V domains shown)
VH: EVQLVESGGGLVQPGGSLRLSCAASGFTFSSYWMSWVRQAPGKGLEWVANIKPDGSEKYYVDSVKGRFTISRDNAKNSVYLQMNSLRAEDTAVYYCARVSRGGSYSDWGQGTLVTVSS
VL: QSALTQPASVSGSPGQSITISCTGTSSDVGGYIYVSWYQQHPGKAPKLMIYDVSRRPSGISDRFSGSKSGNTASLTISGLQAEDEADYYCNSYTTLSTWLFGGGTKVTVL
notes: Human IgG2; also called IgG2 5; IgG25
B3: clone 7 IgG2 protein (antibody, V domains shown)
VH: EVQLVQSGGGLVQPGGSLRLSCAASGFTFSSYWMSWVRQAPGKGLEWVANIKPDGSEKYYVDSVKGRFTISRDNAKNSVYLQMNSLRAEDTAVYYCARVSRGGSYSDWGKGTLVTVSS
VL: QSALTQPASVSGSPGQSIIISCTGTRSDIGGYNYVSWYQHHPGRAPKLIIFDVNNRPSGVSHRFSGSKSGNTASLTISGLQAEDEADYYCNSFTDSRTWLFGGGTKLTVL
notes: Human IgG2; also called IgG2 7
B4: clone 10 IgG2 protein (antibody, V domains shown)
VH: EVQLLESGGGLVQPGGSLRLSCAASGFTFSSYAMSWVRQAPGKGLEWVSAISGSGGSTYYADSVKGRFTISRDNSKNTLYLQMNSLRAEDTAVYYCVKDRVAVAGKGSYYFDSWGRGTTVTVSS
VL: QSVLTQPPSVSEAPGQRVTIACSGSSSNIGNNAVSWYQQLPGKAPTLLIYYDNLLPSGVSDRFSGSKSGTSASLAISGLQSEDEADYYCAAWDDSLNDWVFGGGTKVTVL
notes: Human IgG2; also called IgG2 10
B5: clone 30 IgG2 protein (antibody, V domains shown)
VH: QVQLQESGPGLVKPSQTLSLTCAISGDSVSSNSAAWNWIRQSPSRGLEWLGRTYYRSKWYNDYAVSVKSRMTIKADTSKNQFSLQLNSVTPEDTAVYYCARDEGPLDYWGQGTLVTVSA
VL: QAVLTQPSSVSGAPGQRVTISCTGSSSNLGTGYDVHWYQQLPGTAPKLLIYGNSNRPSGVPDRFSGSKSDTSGLLAITGLQAEDEATYYCQSYDFSLSAMVFGGGTKVTVL
notes: Human IgG2; also called IgG2 30

biological target: T1, mouse EpoR-Fc protein (muEpoR-Fc) (mouse, UniProt P14753 25-249); test: ELISA: antibody coated at 1 µg/ml, biotinylated muEpoR-Fc at 5 µg/ml, streptavidin-HRP, ABTS
T1 construct: Biotinylated in the assay; also called biotinylated muEpoR-Fc; not shown: Fc part not described
T1 sequence (looked up): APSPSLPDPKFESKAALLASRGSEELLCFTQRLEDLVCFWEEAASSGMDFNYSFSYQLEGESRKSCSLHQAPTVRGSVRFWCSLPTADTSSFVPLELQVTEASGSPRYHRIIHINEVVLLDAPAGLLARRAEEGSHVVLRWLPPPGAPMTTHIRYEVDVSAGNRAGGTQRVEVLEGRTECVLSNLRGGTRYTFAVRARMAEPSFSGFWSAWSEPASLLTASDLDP

Binding result, binds:
B1
B2
B3
B4
B5
